Experimental data from patent US20250197889.

B1: Nme1Cas9 (Neisseria meningitidis strain 8013 Cas9), recombinant purified protein (protein)
chain: MAAFKPNSINYILGLDIGIASVGWAMVEIDEEENPIRLIDLGVRVFERAEVPKTGDSLAMARRLARSVRRLTRRRAHRLLRTRRLLKREGVLQAANFDENGLIKSLPNTPWQLRAAALDRKLTPLEWSAVLLHLIKHRGYLSQRKNEGETADKELGALLKGVAGNAHALQTGDFRTPAELALNKFEKESGHIRNQRSDYSHTFSRKDLQAELILLFEKQKEFGNPHVSGGLKEGIETLLMTQRPALSGDAVQKMLGHCTFEPAEPKAAKNTYTAERFIWLTKLNNLRILEQGSERPLTDTERATLMDEPYRKSKLTYAQARKLLGLEDTAFFKGLRYGKDNAEASTLMEMKAYHAISRALEKEGLKDKKSPLNLSPELQDEIGTAFSLFKTDEDITGRLKDRIQPEILEALLKHISFDKFVQISLKALRRIVPLMEQGKRYDEACAEIYGDHYGKKNTEEKIYLPPIPADEIRNPVVLRALSQARKVINGVVRRYGSPARIHIETAREVGKSFKDRKEIEKRQEENRKDREKAAAKFREYFPNFVGEPKSKDILKLRLYEQQHGKCLYSGKEINLGRLNEKGYVEIDHALPFSRTWDDSFNNKVLVLGSENQNKGNQTPYEYFNGKDNSREWQEFKARVETSRFPRSKKQRILLQKFDEDGFKERNLNDTRYVNRFLCQFVADRMRLTGKGKKRVFASNGQITNLLRGFWGLRKVRAENDRHHALDAVVVACSTVAMQQKITRFVRYKEMNAFDGKTIDKETGEVLHQKTHFPQPWEFFAQEVMIRVFGKPDGKPEFEEADTLEKLRTLLAEKLSSRPEAVHEYVTPLFVSRAPNRKMSGQGHMETVKSAKRLDEGVSVLRVPLTQLKLKDLEKMVNREREPKLYEALKARLEAHKDDPAKAFAEPFYKYDKAGNRTQQVKAVRVEQVQKTGVWVRNHNGIADNATMVRVDVFEKGDKYYLVPIYSWQVAKGILPDRAVVQGKDEEDWQLIDDSFNFKFSLHPNDLVEVITKKARMFGYFASCHRGTGNINIRIHDLDHKIGKNGILEGIGVKTALSFQKYQIDELGKEIRPCRLKKRPPVR
AcrIIC2Nme
  in vitro cleavage of a target DNA by Cas9-sgRNA (10:1 Acr:Cas9 molar ratio): all Arc families inhibited Nme1Cas9
AcrE2
  in vitro cleavage of a target DNA by Cas9-sgRNA (10:1 Acr:Cas9 molar ratio): AcrE2 failed to do so
AcrIIC4Hpa
  in vitro cleavage of a target DNA by Cas9-sgRNA (10:1 Acr:Cas9 molar ratio): all Arc families inhibited Nme1Cas9
AcrIIC1Nme
  in vitro cleavage of a target DNA by Cas9-sgRNA (10:1 Acr:Cas9 molar ratio): all Arc families inhibited Nme1Cas9
AcrIIC3Nme
  in vitro cleavage of a target DNA by Cas9-sgRNA (10:1 Acr:Cas9 molar ratio): all Arc families inhibited Nme1Cas9
AcrIIC5Smu
  in vitro cleavage of a target DNA by Cas9-sgRNA (10:1 Acr:Cas9 molar ratio): all Arc families inhibited Nme1Cas9
